Experimental data taken from publication PMC11531469, “Molecular mechanism of parental H3/H4 recycling at a replication fork” (Nature Communications, 2024).

Assays:
Conditions in all cases: both partners purified
histone H3/H4 tetramer [1] = target: T1, histone H3/H4 tetramer (UniProt P61830 1-136; P02309 1-103); assay: native gel or EMSA; 0.5 uM Cdc45-7HIS mixed with 0-2 uM H3/H4 tetramer, 15 min at 30 °C; 25 mM HEPES-KOH pH 7.5, 1 mM EDTA, 10% glycerol, 0.05% Tween 20, 150 mM KCl; loss of the free Cdc45 band on 5-20% Tris-Glycine gel, Coomassie; apparent
histone H3/H4 tetramer [2] = target: T1, histone H3/H4 tetramer; assay: native gel or EMSA; 0.5 uM Cdc45-7HIS mixed with 0-2 uM H3/H4 tetramer, 15 min at 30 °C; 25 mM HEPES-KOH pH 7.5, 1 mM EDTA, 10% glycerol, 0.05% Tween 20, 300 mM KCl; loss of the free Cdc45 band on 5-20% Tris-Glycine gel, Coomassie; apparent
histone H3/H4 tetramer [3] = target: T1, histone H3/H4 tetramer; assay: native gel or EMSA; 0.5 uM Cdc45-7HIS mixed with 0-2 uM H3/H4 tetramer, 15 min at 30 °C; 25 mM HEPES-KOH pH 7.5, 1 mM EDTA, 10% glycerol, 0.05% Tween 20, 750 mM KCl; loss of the free Cdc45 band on 5-20% Tris-Glycine gel, Coomassie; apparent

B1: Cdc45-7HIS (budding yeast Cdc45, wild type) (natural protein)
chain: ISQFSEAYNKILRNSSSHSSCQLVIFVSCLNIDALCATKMLSLLFKKQLVQSQIVPIFGYSELRRHYSQLDDNINSLLLVGFGGVIDLEAFLEIDPQEYVIDTDEKSGEQSFRRDIYVLDAHRPWNLDNIFGSQIIQCFDDGTVDDTLGEQKEAYYKLLELDEESGDDELSGDENDNNGGDDEATDADEVTDEDEEDEDETISNKRGNSSIGPNDLSKRKQRKKQIHEYEGVLEEYYSQGTTVVNSISAQIYSLLSAIGETNLSNLWLNILGTTSLDIAYAQVYNRLYPLLQDEVKRLTPSSRNSVKTPDTLTLNIQPDYYLFLLRHSSLYDSFYYSNYVNAKLSLWNENGKKRLHKMFARMGIPLSTAQETWLYMDHSIKRELGIIFDKNLDRYGLQDIIRDGFVRTLGYRGSISASEFVEALTALLEVGNSTDKDSVKINNDNNDDTDGEEEEDNSAQKLTNLRKRWVSNFWLSWDALDDRKVELLNRGIQLAQDLQRAIFNTGVAILEKKLIKHLRIYRLCVLQDGPDLDLYRNPLTLLRLGNWLIECCAESEDKQLLPMVLASIDENTDTYLVAGLTPRYPRGLDTIHTKKPILNNFSMAFQQITAETDAKVRIDNFESSIIEIRREDLSPFLEKLTLSGLL
notes: Cdc45, budding yeast; also called WT; source: Escherichia coli, purified
For B1, the Kd (histone H3/H4 tetramer [1]) was 68 nM, the Kd (histone H3/H4 tetramer [2]) was 90 nM and the Kd (histone H3/H4 tetramer [3]) was 216 nM.
